From publication PMC7570948 (2020)

T1: CCR7-eGFP stably expressed on 300-19 pre-B cells (human, UniProt P32248 25-378)
T1 chain: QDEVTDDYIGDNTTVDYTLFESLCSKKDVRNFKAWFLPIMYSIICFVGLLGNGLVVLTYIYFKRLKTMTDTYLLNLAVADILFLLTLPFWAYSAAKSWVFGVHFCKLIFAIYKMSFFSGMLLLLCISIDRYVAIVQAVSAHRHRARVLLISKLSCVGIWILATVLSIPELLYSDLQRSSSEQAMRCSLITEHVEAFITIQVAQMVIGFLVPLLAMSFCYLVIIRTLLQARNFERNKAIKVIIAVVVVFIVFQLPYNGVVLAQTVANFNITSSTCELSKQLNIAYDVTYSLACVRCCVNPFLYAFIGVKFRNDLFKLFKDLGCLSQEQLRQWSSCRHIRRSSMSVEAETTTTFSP

B1: CCL19 (synthetic, unlabeled human CCL19) (ligand)
chain: GTNDAEDCCLSVTQKPIPGYIVRNFHYLLIKDGCRVPAVVFTTLRGRQLCAPPDQPWVERIIQRLQRTSAKMKRRSS
B2: CXCL14 (synthetic, unlabeled human CXCL14) (ligand)
chain: SKCKCSRKGPKIRYSDVKKLEMKPKYPHCEEKMVIITTKSVSRYRGQEHCLHPKLQSTKRFIKWYNAWNEKRRVYEE

Key:
[1] = target: T1, CCR7-eGFP stably expressed on 300-19 …; assay: FACS; 37°C, competition with 25 nM CCL19-Dy649P1 (printed as EC50)
[2] = target: T1, CCR7-eGFP stably expressed on 300-19 …; assay: FACS; 10°C, competition with 25 nM CCL19-Dy649P1 (printed as EC50)
[3] = target: T1, CCR7-eGFP stably expressed on 300-19 …; assay: FACS; 37°C, competition with 25 nM CCL19-Dy649P1 (printed as EC50; partial inhibition)

IC50 [1] [nM] | IC50 [2] [nM] | IC50 [3] [nM] | Binder
14.1 | 10.1 | – | B1
– | – | 9.2 | B2
